Target: E. coli ClpP (Escherichia coli, UniProt P0A6G7)
Conditions: Figure S1A; SDS-PAGE

Sequence of E. coli ClpP (P0A6G7 15-207): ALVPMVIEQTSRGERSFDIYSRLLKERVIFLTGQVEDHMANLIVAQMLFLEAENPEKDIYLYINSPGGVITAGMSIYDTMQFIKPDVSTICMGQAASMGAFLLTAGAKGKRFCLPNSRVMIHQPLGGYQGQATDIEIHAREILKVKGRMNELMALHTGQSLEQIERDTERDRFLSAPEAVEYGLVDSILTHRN

B1: ClpA: AAA+ family ATPase that assembles into hexameric rings and binds ClpP (protein)
chain: MLNQELELSLNMAFARAREHRHEFMTVEHLLLALLSNPSAREALEACSVDLVALRQELEAFIEQTTPVLPASEEERDTQPTLSFQRVLQRAVFHVQSSGRNEVTGANVLVAIFSEQESQAAYLLRKHEVSRLDVVNFISHGTRKDEPTQSSDPGSQPNSEEQAGGEERMENFTTNLNQLARVGGIDPLIGREKELERAIQVLCRRRKNNPLLVGESGVGKTAIAEGLAWRIVQGDVPEVMADCTIYSLDIGSLLAGTKYRGDFEKRFKALLKQLEQDTNSILFIDEIHTIIGAGAASGGQVDAANLIKPLLSSGKIRVIGSTTYQEFSNIFEKDRALARRFQKIDITEPSIEETVQIINGLKPKYEAHHDVRYTAKAVRAAVELAVKYINDRHLPDKAIDVIDEAGARARLMPVSKRKKTVNVADIESVVARIARIPEKSVSQSDRDTLKNLGDRLKMLVFGQDKAIEALTEAIKMARAGLGHEHKPVGSFLFAGPTGVGKTEVTVQLSKALGIELLRFDMSEYMERHTVSRLIGAPPGYVGFDQGGLLTDAVIKHPHAVLLLDEIEKAHPDVFNILLQVMDNGTLTDNNGRKADFRNVVLVMTTNAGVRETERKSIGLIHQDNSTDAMEEIKKIFTPEFRNRLDNIIWFDHLSTDVIHQVVDKFIVELQVQLDQKGVSLEVSQEARNWLAEKGYDRAMGARPMARVIQDNLKKPLANELLFGSLVDGGQVTVALDKEKNELTYGFQSAQKHKAEAAH
pattern of β-casein degradation products (processivity): promoted processive degradation of β-casein
